Measured values taken from the supplement of paper PMC10126150.
± gives the standard deviation of the averaged measurements.

These sequences were tested on ATP (assay: switch fluorescence ratio, 500 uM ATP over buffer (Cy3 cluster intensity, sum of 5 cycles each) (fold (ratio)); higher = stronger signal-on switching upon ATP binding; sequences stand for … in TCGTCGGCAGCGTCAGATGTGTATAAGAGACAGTTTTTTTTTTTTTTTTTTTTTTTTT…TC). Conditions: aptamer strand: ATP DNA aptamer (quencher-CACCTGGGGGAGTATTGCGGAGGAAGG + anchor), 100 nM annealed; ATP concentration: 500 uM.
Procedure, shortened: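 Cy3-labelled switching-strand clusters on a modified Illumina MiSeq flow-cell were annealed to 100 nM quencher-labelled ATP aptamer, imaged in selection buffer, then imaged after 15 min with 500 uM ATP at 22 °C. Five buffer/ATP cycles ran, with NaOH stripping and re-annealing between them. The fluorescence ratio is summed target-cycle over summed buffer-cycle Cy3 intensity per cluster, averaged per switch-domain sequence. Clusters outside 100-1000 RFU were excluded.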
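Further: ATP exposure 15 min at 22 °C before imaging.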

Row | Sequence | switch fluorescence ratio
1 | ATACAAGGCA | 0.956 ± 0.053
2 | ATACACGTTA | 1.23 ± 0.013
3 | ATACCAGGCG | 1.24 ± 0.069
4 | ATACCCTGGG | 1.03 ± 0.035
5 | ATACCGGTTG | 1.02 ± 0.015
6 | ATACCGTGAG | 1.05 ± 0.011
7 | ATACGAAGGC | 0.985 ± 0.093
8 | ATACGACGTG | 1.004 ± 0.0083
9 | ATACGAGCAG | 1.067 ± 0.006
10 | ATACGAGTTA | 1.02 ± 0.021
11 | ATACGATTTG | 0.971 ± 0.038
12 | ATACGGGAAT | 1.05 ± 0.022
13 | ATACGTTGAA | 1 ± 0.045
14 | ATACTGTCGC | 1.0874 ± 0.0002
15 | ATACTTAGTG | 0.986 ± 0.019
16 | ATACTTGATT | 0.994 ± 0.025
17 | ATACTTTGGT | 0.9944 ± 0.0018
18 | ATAGAAATTG | 1.01 ± 0.035
19 | ATAGAAGGGT | 1.01 ± 0.026
20 | ATAGAATCAA | 1.02 ± 0.022
21 | ATAGACACGC | 1.034 ± 0.0078
22 | ATAGACAGAC | 1.136 ± 0.0095
23 | ATAGACGAGG | 0.9809 ± 0.0011
24 | ATAGAGTTCT | 0.997 ± 0.041
25 | ATAGATCAGC | 0.995 ± 0.025

Row | Sequence | switch fluorescence ratio
26 | ATAGATGGCC | 0.95 ± 0.056
27 | ATAGCCCGGG | 0.986 ± 0.011
28 | ATAGCCGTCG | 1.07 ± 0.12
29 | ATAGCTACGC | 1.035 ± 0.003
30 | ATAGCTCTCG | 1.01 ± 0.037
31 | ATAGGAAAAA | 0.963 ± 0.059
32 | ATAGGAGTTG | 1.033 ± 0.0089
33 | ATAGGCCAG | 0.9898 ± 0.0067
34 | ATAGGCGGAG | 0.965 ± 0.02
35 | ATAGGCGGGT | 1.004 ± 0.005
36 | ATAGGCTAAA | 1.04 ± 0.044
37 | ATAGGCTAGT | 1.02 ± 0.025
38 | ATAGGCTGTT | 0.986 ± 0.038
39 | ATAGGGACAC | 1.07 ± 0.033
40 | ATAGGGATAG | 1.01 ± 0.047
41 | ATAGGGGAGT | 0.993 ± 0.03
42 | ATAGGGGGGC | 1.01 ± 0.074
43 | ATAGGGGTCG | 1.01 ± 0.076
44 | ATAGGGGTGC | 1.02 ± 0.042
45 | ATAGGGTAAG | 0.965 ± 0.018
46 | ATAGGGTCCG | 0.977 ± 0.024
47 | ATAGGTATCT | 0.988 ± 0.019
48 | ATAGGTATGA | 0.988 ± 0.01
49 | ATAGGTCCGG | 0.9957 ± 0.0041
50 | ATAGGTCTCA | 1 ± 0.013

Row | Sequence | switch fluorescence ratio
51 | ATAGGTCTTA | 0.983 ± 0.04
52 | ATAGGTGAGA | 1.06 ± 0.02
53 | ATAGGTTTTT | 0.973 ± 0.024
54 | ATAGTAAAGG | 0.994 ± 0.031
55 | ATAGTACTTT | 1.05 ± 0.044
56 | ATAGTAGCTA | 0.9764 ± 0.0016
57 | ATAGTATGTT | 0.99 ± 0.051
58 | ATAGTATTAT | 0.968 ± 0.015
59 | ATAGTCAAGG | 0.982 ± 0.028
60 | ATAGTCAGAT | 0.969 ± 0.014
61 | ATAGTCCCAC | 0.9901 ± 0.009
62 | ATAGTGACCG | 1.01 ± 0.013
63 | ATAGTGAGCG | 1.01 ± 0.025
64 | ATAGTGAGGT | 0.986 ± 0.038
65 | ATAGTGCTGT | 0.97717 ± 0.00097
66 | ATAGTGGGGA | 1.04 ± 0.026
67 | ATAGTTGGGA | 1.018 ± 0.0011
68 | ATAGTTGGTT | 1.01 ± 0.03
69 | ATAGTTTGAT | 1.01 ± 0.022
70 | ATAGTTTTTG | 0.993 ± 0.012
71 | ATAGTTTTTT | 0.977 ± 0.017
72 | ATATAAAGGG | 0.996 ± 0.025
73 | ATATACGGCA | 1.19 ± 0.08
74 | ATATAGGTA | 1.036 ± 0.0097
75 | ATATAGGTTT | 1.01 ± 0.0081

Row | Sequence | switch fluorescence ratio
76 | ATATAGTTCG | 0.967 ± 0.047
77 | ATATAGTTTG | 1.001 ± 0.0031
78 | ATATATATCG | 1.01 ± 0.0093
79 | ATATATCGTG | 0.995 ± 0.019
80 | ATATATGGAG | 1.011 ± 0.00029
81 | ATATATGGTG | 1.05 ± 0.02
82 | ATATCAGGGG | 1.13 ± 0.017
83 | ATATCATGGG | 0.982 ± 0.017
84 | ATATCATGTC | 0.9895 ± 0.0032
85 | ATATCATTCA | 1.01 ± 0.019
86 | ATATCCAGGA | 1.02 ± 0.018
87 | ATATCCGCTG | 1.52 ± 0.071
88 | ATATCGGCAT | 1.01 ± 0.035
89 | ATATCGGTAG | 0.999 ± 0.014
90 | ATATCTATTT | 0.997 ± 0.019
91 | ATATCTTTTG | 0.9904 ± 0.0088
92 | ATATGAAGAG | 0.99884 ± 9.2e-05
93 | ATATGAAGGG | 1 ± 0.032
94 | ATATGAATA | 0.9987 ± 0.0037
95 | ATATGCAGGA | 0.965 ± 0.03
96 | ATATGCCGAT | 0.996 ± 0.013
97 | ATATGCGGCG | 1.02 ± 0.073
98 | ATATGCGTAT | 1.01 ± 0.02
99 | ATATGCTCAC | 1.05 ± 0.03
100 | ATATGGAGAT | 0.98 ± 0.017

Row | Sequence | switch fluorescence ratio
101 | ATATGGATAA | 1.01 ± 0.012
102 | ATATGGGCTG | 1.05 ± 0.1
103 | ATATGGTAGT | 1.03 ± 0.032
104 | ATATGGTGCT | 1.004 ± 0.0074
105 | ATATGGTGGG | 1.01 ± 0.025
106 | ATATGTAGGT | 0.998 ± 0.049
107 | ATATGTATGG | 0.968 ± 0.011
108 | ATATGTGACT | 0.977 ± 0.014
109 | ATATGTGAGG | 0.985 ± 0.0073
110 | ATATGTGCCA | 0.98 ± 0.02
111 | ATATGTGGCG | 0.932 ± 0.011
112 | ATATGTGGGT | 0.989 ± 0.038
113 | ATATGTTGAA | 1.02 ± 0.027
114 | ATATGTTGAG | 1 ± 0.017
115 | ATATGTTTTT | 0.996 ± 0.018
116 | ATATTAGTTT | 1 ± 0.011
117 | ATATTATGAT | 0.985 ± 0.03
118 | ATATTATGGG | 0.9979 ± 0.0095
119 | ATATTCGGAA | 0.99369 ± 0.00071
120 | ATATTCGTTG | 1.007 ± 0.0027
121 | ATATTGAGGC | 1.01 ± 0.038
122 | ATATTGCTGG | 0.9724 ± 0.0085
123 | ATATTGGTGG | 0.991 ± 0.042
124 | ATATTTAATC | 0.999 ± 0.0079
125 | ATATTTAGCG | 0.968 ± 0.016

Row | Sequence | switch fluorescence ratio
126 | ATATTTGATT | 0.977 ± 0.021
127 | ATATTTGGAG | 0.9981 ± 0.003
128 | ATATTTGGCC | 0.974 ± 0.021
129 | ATATTTTAAC | 1 ± 0.012
130 | ATATTTTGTG | 0.982 ± 0.026
131 | ATATTTTGTT | 1.03 ± 0.066
132 | ATATTTTTAT | 0.987 ± 0.0082
133 | ATATTTTTGG | 0.993 ± 0.011
134 | ATCAAAAACG | 1.01 ± 0.029
135 | ATCAAAAGAT | 0.9811 ± 0.0085
136 | ATCAAAGGGG | 1 ± 0.0072
137 | ATCAAATCGG | 1.01 ± 0.025
138 | ATCAAGGGGA | 0.972 ± 0.028
139 | ATCAATGGCA | 0.975 ± 0.035
140 | ATCAATGGGT | 0.979 ± 0.025
141 | ATCAATGTTC | 1.07 ± 0.094
142 | ATCAATTCGA | 1.021 ± 0.0038
143 | ATCAATTGAT | 1.01 ± 0.052
144 | ATCACATGAC | 1.19 ± 0.016
145 | ATCACATTCG | 1.02 ± 0.043
146 | ATCACGCGTA | 1.02 ± 0.037
147 | ATCACGGGCT | 0.967 ± 0.027
148 | ATCACTAGGA | 1.04 ± 0.037
149 | ATCACTCACT | 1.18 ± 0.06
150 | ATCACTCGTA | 1.03 ± 0.043

Row | Sequence | switch fluorescence ratio
151 | ATCAGACTTG | 1.023 ± 0.0012
152 | ATCAGAGCTG | 0.964 ± 0.032
153 | ATCAGATGAA | 0.999 ± 0.023
154 | ATCAGATTGG | 0.989 ± 0.0099
155 | ATCAGGATGC | 1.04 ± 0.063
156 | ATCAGGCATT | 1.03 ± 0.011
157 | ATCAGGGACA | 1.18 ± 0.017
158 | ATCAGGGTAC | 1.05 ± 0.04
159 | ATCATAAGGT | 1.02 ± 0.02
160 | ATCATCCGTT | 1.04 ± 0.025
161 | ATCATGAGGT | 0.97829 ± 0.00072
162 | ATCATGCTTC | 0.994 ± 0.025
163 | ATCATGTGTT | 0.994 ± 0.022
164 | ATCATTCAAA | 1.008 ± 0.0073
165 | ATCATTCCTC | 1.573 ± 0.011
166 | ATCATTGGGC | 0.988 ± 0.025
167 | ATCATTGGTA | 1 ± 0.023
168 | ATCATTGTTA | 1 ± 0.053
169 | ATCCAAGATT | 1 ± 0.019
170 | ATCCAGTGTC | 1.057 ± 0.0061
171 | ATCCAGTGTG | 1.89 ± 0.2
172 | ATCCCCGGAG | 1.33 ± 0.12
173 | ATCCGAGCAT | 4.654 ± 0.039
174 | ATCCGGTTCG | 0.9946 ± 0.0095
175 | ATCCTAAGGC | 1 ± 0.029

Row | Sequence | switch fluorescence ratio
176 | ATCCTGGGGT | 1.01 ± 0.029
177 | ATCCTTTGTG | 1.02 ± 0.053
178 | ATCGAAATGG | 1 ± 0.024
179 | ATCGAACCTT | 1.55 ± 0.45
180 | ATCGACTTTT | 1.015 ± 0.003
181 | ATCGAGAACG | 0.993 ± 0.014
182 | ATCGAGTGTG | 1.01 ± 0.027
183 | ATCGATGGGT | 1.03 ± 0.047
184 | ATCGCCTTGT | 0.9943 ± 0.0024
185 | ATCGCGGCCG | 1.02 ± 0.04
186 | ATCGCGTACT | 1.19 ± 0.04
187 | ATCGCTTAAG | 0.991 ± 0.035
188 | ATCGCTTAAT | 1.03 ± 0.049
189 | ATCGCTTGAG | 0.9725 ± 0.0034
190 | ATCGGAAAAA | 1.02 ± 0.026
191 | ATCGGAGGAA | 1.17 ± 0.061
192 | ATCGGATTGT | 1.012 ± 0.007
193 | ATCGGATTTC | 1.02 ± 0.047
194 | ATCGGCATTT | 1.027 ± 0.0084
195 | ATCGGCGATT | 1.04 ± 0.024
196 | ATCGGCGGGA | 0.986 ± 0.01
197 | ATCGGGGATT | 1.01 ± 0.014
198 | ATCGGGGGCC | 0.973 ± 0.042
199 | ATCGGGGGTG | 0.982 ± 0.036
200 | ATCGGGGTAT | 0.992 ± 0.042
